Data: article PMC4483278

Target: Bax (human (endogenous in U-2 OS and Sa OS)) (UniProt Q07812)
Experiment: co-IP

Ku70, sequence (P12956 whole entry): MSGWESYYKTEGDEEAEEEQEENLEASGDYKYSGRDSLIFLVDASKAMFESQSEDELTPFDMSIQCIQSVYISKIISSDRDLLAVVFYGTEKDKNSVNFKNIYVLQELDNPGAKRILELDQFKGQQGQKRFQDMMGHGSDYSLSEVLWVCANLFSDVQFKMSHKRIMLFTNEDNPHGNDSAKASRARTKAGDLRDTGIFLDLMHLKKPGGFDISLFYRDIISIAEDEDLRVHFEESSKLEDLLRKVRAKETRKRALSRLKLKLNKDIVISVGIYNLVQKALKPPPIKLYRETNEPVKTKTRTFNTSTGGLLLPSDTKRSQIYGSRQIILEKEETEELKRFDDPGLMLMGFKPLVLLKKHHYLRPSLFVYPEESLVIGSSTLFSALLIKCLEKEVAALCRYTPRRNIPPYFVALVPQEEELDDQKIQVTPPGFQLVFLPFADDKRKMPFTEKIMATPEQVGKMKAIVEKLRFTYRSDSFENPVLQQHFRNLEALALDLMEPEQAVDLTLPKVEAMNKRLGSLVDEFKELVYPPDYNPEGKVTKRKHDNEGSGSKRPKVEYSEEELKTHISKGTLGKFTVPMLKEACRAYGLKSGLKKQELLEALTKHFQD
Bax (human (endogenous in U-2 OS and Sa OS)), sequence (Q07812 whole entry): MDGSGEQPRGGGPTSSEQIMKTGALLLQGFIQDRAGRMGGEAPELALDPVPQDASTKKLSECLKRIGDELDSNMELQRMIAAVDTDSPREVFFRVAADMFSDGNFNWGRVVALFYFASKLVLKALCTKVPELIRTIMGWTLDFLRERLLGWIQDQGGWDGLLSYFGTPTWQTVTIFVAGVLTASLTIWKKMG

In the case of “Ku70 (from UniProt P12956 1-609) (natural protein)”, the percent of Ku70 remaining bound to Bax after sCLU depletion is reported as < 25%.
